Source: IntAct's records for PubMed 29892012

Key:
drc12_human DRC12 = drc12_human DRC12 (UniProt Q494R4)
trim1_human MID2 = molecular target: T1, trim1_human MID2 (UniProt Q9UJV3)
T1 sequence: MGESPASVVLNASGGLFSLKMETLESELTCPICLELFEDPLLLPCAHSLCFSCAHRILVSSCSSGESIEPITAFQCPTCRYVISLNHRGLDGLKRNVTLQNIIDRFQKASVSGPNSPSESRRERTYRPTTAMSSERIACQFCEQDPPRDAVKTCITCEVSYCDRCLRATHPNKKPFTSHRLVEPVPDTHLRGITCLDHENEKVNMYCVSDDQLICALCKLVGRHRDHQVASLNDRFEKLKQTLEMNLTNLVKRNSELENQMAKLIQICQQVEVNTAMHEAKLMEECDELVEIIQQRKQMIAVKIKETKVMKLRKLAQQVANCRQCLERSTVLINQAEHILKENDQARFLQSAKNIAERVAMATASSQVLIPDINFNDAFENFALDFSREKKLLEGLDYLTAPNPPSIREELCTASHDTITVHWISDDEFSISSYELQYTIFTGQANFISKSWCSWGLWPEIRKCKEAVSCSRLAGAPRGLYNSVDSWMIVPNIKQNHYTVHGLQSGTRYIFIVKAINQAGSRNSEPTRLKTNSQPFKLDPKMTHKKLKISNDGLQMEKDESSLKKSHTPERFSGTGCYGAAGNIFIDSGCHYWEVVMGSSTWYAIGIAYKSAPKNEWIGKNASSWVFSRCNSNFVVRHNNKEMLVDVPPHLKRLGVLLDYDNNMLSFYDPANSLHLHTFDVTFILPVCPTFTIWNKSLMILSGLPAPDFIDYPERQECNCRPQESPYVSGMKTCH

goga2_human GOLGA2 = molecular target: T2, goga2_human GOLGA2 (UniProt Q08379)
T2 sequence: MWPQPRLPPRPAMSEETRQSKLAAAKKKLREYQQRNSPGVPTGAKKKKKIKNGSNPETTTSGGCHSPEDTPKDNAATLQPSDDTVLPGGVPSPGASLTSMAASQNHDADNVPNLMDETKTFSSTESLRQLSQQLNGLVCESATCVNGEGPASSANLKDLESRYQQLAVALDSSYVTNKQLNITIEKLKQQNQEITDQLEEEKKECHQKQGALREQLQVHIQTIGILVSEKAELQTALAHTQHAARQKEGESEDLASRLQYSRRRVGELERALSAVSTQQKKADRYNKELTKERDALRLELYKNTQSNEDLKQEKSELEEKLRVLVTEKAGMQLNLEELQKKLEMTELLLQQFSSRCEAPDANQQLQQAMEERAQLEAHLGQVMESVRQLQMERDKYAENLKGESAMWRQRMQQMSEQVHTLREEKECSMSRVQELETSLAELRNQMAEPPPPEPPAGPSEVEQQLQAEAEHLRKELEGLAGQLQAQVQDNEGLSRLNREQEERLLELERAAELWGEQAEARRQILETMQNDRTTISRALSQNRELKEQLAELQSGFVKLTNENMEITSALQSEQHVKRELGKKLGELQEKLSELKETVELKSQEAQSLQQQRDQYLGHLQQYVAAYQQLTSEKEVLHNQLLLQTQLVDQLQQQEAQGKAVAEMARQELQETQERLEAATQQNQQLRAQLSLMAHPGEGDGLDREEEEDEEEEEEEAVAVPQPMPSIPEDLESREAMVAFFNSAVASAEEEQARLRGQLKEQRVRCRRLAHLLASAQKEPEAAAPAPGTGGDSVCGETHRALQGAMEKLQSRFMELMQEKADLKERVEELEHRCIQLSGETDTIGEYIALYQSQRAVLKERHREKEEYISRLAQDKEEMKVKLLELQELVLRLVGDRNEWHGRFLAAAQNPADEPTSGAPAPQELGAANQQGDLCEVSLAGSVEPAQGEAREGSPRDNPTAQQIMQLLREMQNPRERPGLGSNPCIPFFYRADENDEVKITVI

acy3_human ACY3 = molecular target: T3, acy3_human ACY3 (UniProt Q96HD9)
T3 sequence: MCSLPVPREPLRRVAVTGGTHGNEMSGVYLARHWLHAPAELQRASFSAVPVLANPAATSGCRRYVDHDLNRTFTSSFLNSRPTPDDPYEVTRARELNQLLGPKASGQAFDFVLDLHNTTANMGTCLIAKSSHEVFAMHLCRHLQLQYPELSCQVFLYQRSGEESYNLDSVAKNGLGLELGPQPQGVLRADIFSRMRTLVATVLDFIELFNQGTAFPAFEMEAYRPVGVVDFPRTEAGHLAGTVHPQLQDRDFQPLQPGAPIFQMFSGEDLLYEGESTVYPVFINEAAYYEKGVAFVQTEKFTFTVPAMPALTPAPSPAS

phs_human PCBD1 = molecular target: T4, phs_human PCBD1 (UniProt P61457)
T4 sequence: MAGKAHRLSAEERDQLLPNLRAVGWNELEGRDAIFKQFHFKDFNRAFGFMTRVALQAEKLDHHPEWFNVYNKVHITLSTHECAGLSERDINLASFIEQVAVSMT

traf4_human TRAF4 = molecular target: T5, traf4_human TRAF4 (UniProt Q9BUZ4)
T5 sequence: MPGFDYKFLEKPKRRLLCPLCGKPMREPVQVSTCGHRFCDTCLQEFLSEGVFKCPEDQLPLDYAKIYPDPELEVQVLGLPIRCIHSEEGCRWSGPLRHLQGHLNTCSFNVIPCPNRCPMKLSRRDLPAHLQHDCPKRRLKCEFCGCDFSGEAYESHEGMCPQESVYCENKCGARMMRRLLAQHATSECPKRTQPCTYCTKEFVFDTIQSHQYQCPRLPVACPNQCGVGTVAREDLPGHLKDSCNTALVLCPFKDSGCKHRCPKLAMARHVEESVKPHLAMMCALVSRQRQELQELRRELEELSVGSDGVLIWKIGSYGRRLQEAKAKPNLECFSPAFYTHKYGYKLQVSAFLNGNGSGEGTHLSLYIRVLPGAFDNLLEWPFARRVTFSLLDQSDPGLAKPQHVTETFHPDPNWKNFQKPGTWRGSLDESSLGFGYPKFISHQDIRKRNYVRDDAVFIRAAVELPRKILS

cryaa_human CRYAA = molecular target: T6, cryaa_human CRYAA (UniProt P02489)
T6 sequence: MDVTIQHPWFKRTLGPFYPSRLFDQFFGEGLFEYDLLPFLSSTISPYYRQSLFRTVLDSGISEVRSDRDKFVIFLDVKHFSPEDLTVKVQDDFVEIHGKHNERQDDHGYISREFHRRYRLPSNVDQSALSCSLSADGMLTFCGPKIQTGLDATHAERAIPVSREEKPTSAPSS

Sequence of drc12_human DRC12 (Q494R4 whole entry): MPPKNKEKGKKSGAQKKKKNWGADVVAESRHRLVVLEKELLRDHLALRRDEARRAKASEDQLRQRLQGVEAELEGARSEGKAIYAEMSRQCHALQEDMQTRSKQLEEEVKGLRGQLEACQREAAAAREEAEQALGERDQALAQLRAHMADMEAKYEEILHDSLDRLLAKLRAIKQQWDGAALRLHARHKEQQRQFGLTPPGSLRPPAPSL

effect of a mutation on the interaction (drc12_human DRC12): with no effect
effect of a mutation on the interaction (trim1_human MID2): with no effect
effect of a mutation on the interaction (goga2_human GOLGA2): with no effect
effect of a mutation on the interaction (acy3_human ACY3): disrupting interaction strength
effect of a mutation on the interaction (phs_human PCBD1): with no effect
effect of a mutation on the interaction (traf4_human TRAF4): with no effect
effect of a mutation on the interaction (cryaa_human CRYAA): with no effect
Substance: Golgi reassembly-stacking protein 2 (Homo sapiens) (from UniProt Q9H8Y8) L320R
